Experimental data from ChEMBL document CHEMBL2074118, “Effects of tacrolimus and cyclosporin A on peptide transporter PEPT1 in Caco-2 cells” (Pharm Res, 2001).

Substrate: CN(CC(=O)O)C(=O)CN
Assay: TP_TRANSPORTER: uptake in Caco-2 cells
Format: functional, cell-based

B1: Solute carrier family 15 member 1 (Homo sapiens), P46059 (protein)
chain: MGMSKSHSFFGYPLSIFFIVVNEFCERFSYYGMRAILILYFTNFISWDDNLSTAIYHTFVALCYLTPILGALIADSWLGKFKTIVSLSIVYTIGQAVTSVSSINDLTDHNHDGTPDSLPVHVVLSLIGLALIALGTGGIKPCVSAFGGDQFEEGQEKQRNRFFSIFYLAINAGSLLSTIITPMLRVQQCGIHSKQACYPLAFGVPAALMAVALIVFVLGSGMYKKFKPQGNIMGKVAKCIGFAIKNRFRHRSKAFPKREHWLDWAKEKYDERLISQIKMVTRVMFLYIPLPMFWALFDQQGSRWTLQATTMSGKIGALEIQPDQMQTVNAILIVIMVPIFDAVLYPLIAKCGFNFTSLKKMAVGMVLASMAFVVAAIVQVEIDKTLPVFPKGNEVQIKVLNIGNNTMNISLPGEMVTLGPMSQTNAFMTFDVNKLTRINISSPGSPVTAVTDDFKQGQRHTLLVWAPNHYQVVKDGLNQKPEKGENGIRFVNTFNELITITMSGKVYANISSYNASTYQFFPSGIKGFTISSTEIPPQCQPNFNTFYLEFGSAYTYIVQRKNDSCPEVKVFEDISANTVNMALQIPQYFLLTCGEVVFSVTGLEFSYSQAPSNMKSVLQAGWLLTVAVGNIIVLIVAGAGQFSKQWAEYILFAALLLVVCVIFAIMARFYTYINPAEIEAQFDEDEKKNRLEKSNPYFMSGANSQKQM
- Km: 830 µM
